Experimental data: paper PMC10786891, “Massively parallel profiling of RNA-targeting CRISPR-Cas13d”
Positions count from the first letter of the chain named. In names and notes the source's numbering stands.

T1: EsCas13d, nuclease-dead (Eubacterium siraeum, UniProt B0MS50, R295A;H300A;R849A;H854A)
T1 sequence: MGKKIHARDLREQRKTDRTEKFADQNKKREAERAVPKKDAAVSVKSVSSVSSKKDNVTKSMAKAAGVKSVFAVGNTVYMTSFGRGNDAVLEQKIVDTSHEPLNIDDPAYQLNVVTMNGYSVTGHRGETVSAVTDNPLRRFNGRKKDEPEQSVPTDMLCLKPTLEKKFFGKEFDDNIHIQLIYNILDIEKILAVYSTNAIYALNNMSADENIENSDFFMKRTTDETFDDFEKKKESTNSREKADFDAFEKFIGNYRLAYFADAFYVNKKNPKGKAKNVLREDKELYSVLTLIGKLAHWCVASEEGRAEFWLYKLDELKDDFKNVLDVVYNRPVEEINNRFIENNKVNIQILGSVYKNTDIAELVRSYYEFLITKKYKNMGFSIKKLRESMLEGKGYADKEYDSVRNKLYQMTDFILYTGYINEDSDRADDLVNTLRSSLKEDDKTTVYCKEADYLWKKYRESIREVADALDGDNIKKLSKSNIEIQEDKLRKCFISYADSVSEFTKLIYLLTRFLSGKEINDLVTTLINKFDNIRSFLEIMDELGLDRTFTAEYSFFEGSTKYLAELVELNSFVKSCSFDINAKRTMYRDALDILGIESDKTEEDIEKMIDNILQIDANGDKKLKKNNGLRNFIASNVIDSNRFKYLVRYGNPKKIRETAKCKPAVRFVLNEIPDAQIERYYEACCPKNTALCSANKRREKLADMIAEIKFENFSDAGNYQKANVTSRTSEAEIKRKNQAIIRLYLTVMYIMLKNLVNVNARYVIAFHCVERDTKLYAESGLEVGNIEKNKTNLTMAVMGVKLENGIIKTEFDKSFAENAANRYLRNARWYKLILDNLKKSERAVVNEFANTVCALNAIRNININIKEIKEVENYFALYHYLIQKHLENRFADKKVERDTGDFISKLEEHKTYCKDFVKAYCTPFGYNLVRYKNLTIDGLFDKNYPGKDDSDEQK

B1: target 2 MT 5'PFS AUU 3'PFS CUA (mixed)
RNA 1: CACCCGUGCAAAAUUGCAGGGGUCUAAAACCUUCUCCAAAUUGUUUCAUCCU
RNA 2: GGGAAUGGAUCCACAUCUACGAAUUCAUUAGGAUGAAACAAUUUGGAGAAGCUAAGAUCGGAAGAGCACACGU
B2: target 2 MT 5'PFS CAG 3'PFS UGA (mixed)
RNA 1: B1 RNA 1
RNA 2: B1 RNA 2 with A27C, U28A, U29G, C52U, U53G
B3: target 2 MT 5'PFS UAG 3'PFS CCG (mixed)
RNA 1: B1 RNA 1
RNA 2: B1 RNA 2 with A27U, U28A, U29G, U53C, A54G
B4: target 2 MT 5'PFS CUC 3'PFS UUC (mixed)
RNA 1: B1 RNA 1
RNA 2: B1 RNA 2 with A27C, U29C, C52U, A54C
B5: target 2 MT 5'PFS UCG 3'PFS UCA (mixed)
RNA 1: B1 RNA 1
RNA 2: B1 RNA 2 with A27U, U28C, U29G, C52U, U53C
B6: target 2 MT 5'PFS UAG 3'PFS AAG (mixed)
RNA 1: B1 RNA 1
RNA 2: B1 RNA 2 with A27U, U28A, U29G, C52A, U53A, A54G
B7: target 2 MT 5'PFS UAG 3'PFS CCA (mixed)
RNA 1: B1 RNA 1
RNA 2: B1 RNA 2 with A27U, U28A, U29G, U53C
B8: target 2 MT 5'PFS UAG 3'PFS AAA (mixed)
RNA 1: B1 RNA 1
RNA 2: B1 RNA 2 with A27U, U28A, U29G, C52A, U53A
B9: target 2 MT 5'PFS CAG 3'PFS UGC (mixed)
RNA 1: B1 RNA 1
RNA 2: B1 RNA 2 with A27C, U28A, U29G, C52U, U53G, A54C
B10: target 2 MT 5'PFS AUU 3'PFS CUC (mixed)
RNA 1: B1 RNA 1
RNA 2: B1 RNA 2 with A54C
B11: target 2 MT 5'PFS CAG 3'PFS ACC (mixed)
RNA 1: B1 RNA 1
RNA 2: B1 RNA 2 with A27C, U28A, U29G, C52A, U53C, A54C
B12: target 2 MT 5'PFS AUU 3'PFS CUG (mixed)
RNA 1: B1 RNA 1
RNA 2: B1 RNA 2 with A54G
B13: target 2 MT 5'PFS UAG 3'PFS AAC (mixed)
RNA 1: B1 RNA 1
RNA 2: B1 RNA 2 with A27U, U28A, U29G, C52A, U53A, A54C
B14: target 2 MT 5'PFS UAG 3'PFS CCU (mixed)
RNA 1: B1 RNA 1
RNA 2: B1 RNA 2 with A27U, U28A, U29G, U53C, A54U
B15: target 2 MT 5'PFS AUU 3'PFS UCC (mixed)
RNA 1: B1 RNA 1
RNA 2: B1 RNA 2 with C52U, U53C, A54C
B16: target 2 MT 5'PFS CUC 3'PFS UUA (mixed)
RNA 1: B1 RNA 1
RNA 2: B1 RNA 2 with A27C, U29C, C52U
B17: target 2 MT 5'PFS CUC 3'PFS UUU (mixed)
RNA 1: B1 RNA 1
RNA 2: B1 RNA 2 with A27C, U29C, C52U, A54U
B18: target 1 C4A,A18U (mixed)
RNA 1: CACCCGUGCAAAAAUGCAGGGGUCUAAAACUGAGCGGAUAACCUCUCUAUGG
RNA 2: GGGAAUGGAUCCACAUCUACGAAUUCGUACCAUUGAGAGGUUAUCCGAUCACCGAGAUCGGAAGAGCACACGU

These binders were tested against T1, EsCas13d, nuclease-dead (assay: crRNA (strand 1, pre-loaded); Mg2+; 40 mM Tris-HCl pH 7.5, 150 mM NaCl, 6 mM MgCl2, 1 mM DTT, 0.1% Tween-20, 0.2 mg/ml BSA; 25 C; 10 min per concentration, then washed). Conditions: tags: His6-TwinStrep-SUMO cleaved; N-terminal SNAP kept (SNAP-Surface 488); label: 3' end held by stalled T7 RNA polymerase.

Row | Binder | Kd [nM]
1 | B1 | 14 ± 4
2 | B2 | 6.8 ± 1.4
3 | B3 | 2.56 ± 0.17
4 | B4 | 6.5 ± 1.6
5 | B5 | 21 ± 5
6 | B6 | 2.87 ± 0.28
7 | B7 | 5.1 ± 0.4
8 | B8 | 2.2 ± 0.4
9 | B9 | 4.7 ± 1.2
10 | B10 | 16.6 ± 3.1
11 | B11 | 5.5 ± 1.1
12 | B12 | 9.7 ± 1.3
13 | B13 | 3.6 ± 0.4
14 | B14 | 54 ± 17
15 | B15 | 16.7 ± 1.8
16 | B16 | 4.9 ± 0.7
17 | B17 | 5.3 ± 0.7
18 | B18 | 21.1 ± 2.4
